± gives the standard deviation of the averaged measurements.
System: ATP
Experiment: switch fluorescence ratio, 500 uM ATP over buffer (Cy3 cluster intensity, sum of 5 cycles each) (fold (ratio)); higher = stronger signal-on switching upon ATP binding; sequences stand for … in TCGTCGGCAGCGTCAGATGTGTATAAGAGACAGTTTTTTTTTTTTTTTTTTTTTTTTT…TC
Settings: aptamer strand: ATP DNA aptamer (quencher-CACCTGGGGGAGTATTGCGGAGGAAGG + anchor), 100 nM annealed; ATP concentration: 500 uM
Outline: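 Exposure to 500 uM ATP lasted 15 min at 22 °C before imaging, and a selection-buffer image was taken beforehand, for Cy3-labelled switching-strand clusters on a modified Illumina MiSeq flow-cell annealed to 100 nM quencher-labelled ATP aptamer. Five buffer/ATP cycles were run with NaOH stripping and re-annealing between them. The fluorescence ratio per cluster is summed target-cycle over summed buffer-cycle Cy3 intensity, averaged per switch-domain sequence. Clusters outside 100-1000 RFU were excluded.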

Sequence	switch fluorescence ratio
ACGCGGGGGA	1.03 ± 0.014
AAGGTCCGCG	1.08 ± 0.027
TTTTATGTTC	1.01 ± 0.018
TTTCGCCATT	1.3 ± 0.46
CCAAAAAGTG	1.03 ± 0.031
CTCTAAAAAG	1.06 ± 0.05
AGATGAGGAA	1.004 ± 0.01
TGGAAATCGC	1 ± 0.04
TTCATCGACT	0.996 ± 0.047
GGCTTGGGTT	1.01 ± 0.039
GGTGTGTTTT	0.981 ± 0.048
CTAAACTAGG	1.02 ± 0.013
TGGTTCTAG	0.989 ± 0.024
TGGTCGGCAA	1.045 ± 0.0081
AGCGTTTTCA	0.994 ± 0.04
AACCCGGATT	0.9958 ± 0.0035
TCGGTCGCGG	0.974 ± 0.028
CGGGAGAAAG	1 ± 0.022
AGGGTAGATC	1.03 ± 0.018
TCTCCATTGT	1.04 ± 0.046
AGTAGAGCCT	1.061 ± 0.0069
CGGTTTGGAG	0.995 ± 0.056
TCCCACTGCT	1.03 ± 0.034
GGGTGCTGCT	0.954 ± 0.033
CGCAGGGTGG	1.05 ± 0.022

Sequence	switch fluorescence ratio
AATTAGTATG	0.999 ± 0.014
TCAAAATTTC	1.01 ± 0.0072
CTGTTCACGG	1.017 ± 0.0092
TGAGCATGGG	1 ± 0.029
AGGCGGGTGG	1.03 ± 0.019
GGGATGGTTT	0.988 ± 0.028
AGGACAAAGG	0.989 ± 0.041
TTTGTTAAAA	1.04 ± 0.061
AGTGTTGCAG	0.98 ± 0.048
AGCTAAAACG	1.14 ± 0.19
GAGCGAGAAG	1.01 ± 0.028
GTTTCAGGGA	1.01 ± 0.013
CGGGTCGGCG	1.01 ± 0.049
ACATGGAGGG	1.01 ± 0.057
TATAACATAT	1.03 ± 0.041
GGATGGGGGC	0.992 ± 0.023
TTCACCCTTT	1.02 ± 0.049
GCGAAAAATA	1.0196 ± 0.00067
GTTGTAGTCC	1.02 ± 0.022
AACGGCAGTG	1.03 ± 0.022
ATTCGTGTAT	0.977 ± 0.04
ATAAGGGCGA	0.985 ± 0.028
TCCTTGTTTT	1 ± 0.028
GTGGACTAGT	1.02 ± 0.026
CATTCGAATA	1.08 ± 0.037

Sequence	switch fluorescence ratio
CAAACGTGGG	0.98611 ± 0.00012
TGTTAGGAAT	1 ± 0.021
AATTGTTAAC	0.995 ± 0.016
ATTTTTTAAG	0.9996 ± 0.0081
CAGCGTTCAC	1.054 ± 0.0092
GGTGGGGGTG	0.998 ± 0.031
TTTTAGCGGT	0.974 ± 0.02
AAGCTCGGTA	0.9866 ± 0.0065
TTTTTGGACT	0.983 ± 0.012
GATTAGGCGA	1.023 ± 0.0064
CGTTGGTGGC	0.9457 ± 0.0066
GCTGGAAGTA	0.97 ± 0.046
GACGTGATCC	2.5 ± 0.8
ACTTGGCTGT	0.99842 ± 0.00092
TTCGATTGTG	0.9867 ± 0.0088
AGATTTACTT	0.985 ± 0.014
TGATGGAAGG	0.958 ± 0.06
ATGGGGGGCG	1.02 ± 0.053
CACGGCGTAG	1.02 ± 0.013
CTAGACGTTT	1.01 ± 0.047
TTTGATTTAG	0.989 ± 0.026
AATCAAAAAT	0.949 ± 0.043
AAAGGGGTAG	0.9975 ± 0.0069
CGGGTTCTCG	0.978 ± 0.025
TAATAGGGGG	1.02 ± 0.035

Sequence	switch fluorescence ratio
TAGTTTTTCT	0.971 ± 0.022
TAATGTGTTG	0.994 ± 0.014
AGACCTCATA	1.02 ± 0.021
GTAAGTAAAA	1.03 ± 0.089
TTATTGGGTT	0.995 ± 0.017
TGTTGTAAGT	0.984 ± 0.026
GAGCTGGGGA	0.983 ± 0.012
ATGGGGTTTC	1.01 ± 0.051
ACGGGTGCGT	1.017 ± 0.0027
GAGCTTTGAT	0.996 ± 0.024
GCGCCCGTGG	1.01 ± 0.034
CCTTGAGGGA	1.06 ± 0.11
CGCAGGATTT	1.09 ± 0.19
TTTAGCTAGT	1.01 ± 0.032
AGTTGCGGTC	0.9516 ± 0.0041
TTTGCCGGTA	1.01 ± 0.014
TTTCGTCAGG	0.997 ± 0.038
TTATCTGTAA	1.01 ± 0.051
GAAAGGAAAA	0.975 ± 0.016
GTATTCGGGA	0.963 ± 0.029
GCTGTCTATC	1.01 ± 0.027
TTTGTCTAG	1.022 ± 0.00058
AACTGAGTTT	1.008 ± 0.0015
AGGGAAAGCG	0.996 ± 0.044
TACAAGATGT	1.01 ± 0.029

Sequence	switch fluorescence ratio
ATCTTGCGGA	1.02 ± 0.05
CGACTATCGC	1.12 ± 0.06
ACCAGTTATT	1.08 ± 0.14
ATCAGGGTGG	0.987 ± 0.032
GCTGTAGTTG	0.993 ± 0.019
GGTTTACTTC	0.9967 ± 0.0016
GCCGTAATGG	1.24 ± 0.089
GCGGGGGATG	1.01 ± 0.034
ATTTTGATAA	1.02 ± 0.021
AATGCTGCGC	1.03 ± 0.056
GGGAATCGTA	1.04 ± 0.015
GGATTTGGCC	1 ± 0.043
TGAATGAAGG	1.01 ± 0.058
TTTATGCTGT	0.976 ± 0.02
ATGTATAAAG	0.987 ± 0.03
GTCTATATTT	1 ± 0.044
TATGCTAGGT	0.983 ± 0.012
CCGTAAGGAA	1.06 ± 0.11
AGATGTCTGG	0.9897 ± 0.0063
GCATTTGTAC	1.266 ± 0.0026
GTGATAAGAC	1.042 ± 0.0085
TTTTATCCGT	1.06 ± 0.066
TCTGGGAAGA	1.02 ± 0.044
AAGGACTAAC	1.12 ± 0.012
ATTTGTCGGC	1.05 ± 0.051

Sequence	switch fluorescence ratio
AAGTCAGCTG	0.9826 ± 0.004
TAAAATCGGG	0.958 ± 0.023
CACGCGTATG	1.03 ± 0.011
TCGCTGAAGC	1.02 ± 0.013
TTTGAATGGG	0.985 ± 0.029
TCAGTTGGAA	0.977 ± 0.039
CGTATAGAGA	0.998 ± 0.039
ACAAGTTCAG	0.993 ± 0.023
TTTTATGACC	1.008 ± 0.0066
TGGTTTAATT	1.01 ± 0.017
TTCCTTCTTT	1.08 ± 0.061
TTGGGTACGA	0.997 ± 0.0043
GTGTTTGACA	0.9604 ± 0.005
ATAGTCCAGC	0.988 ± 0.035
CGGCCCAGAA	1 ± 0.015
TAGTCTAGGT	1.02 ± 0.025
TCAGGGGGCC	1.02 ± 0.077
GGGGGCTTTG	0.978 ± 0.023
TGGTTACTGT	1.02 ± 0.022
TCCCTGTTGC	1.09 ± 0.045
CGGTTGGTGG	1.01 ± 0.014
GAGAATTGTA	0.97 ± 0.03
CTGAGAAGAG	0.993 ± 0.041
GTTGATGTAT	0.987 ± 0.021
ATACGGGAGT	1 ± 0.0018

Sequence	switch fluorescence ratio
GATTTAGTTA	1.01 ± 0.027
AATTTGATAA	0.981 ± 0.011
TCAGGCAGGC	0.936 ± 0.052
TCGCTTCTCT	1.76 ± 1
CAGTTGTTGC	0.984 ± 0.023
ATCAAGGGTG	1.11 ± 0.013
AGGGTGTGGC	1.0304 ± 0.00027
AGTTTGGGAG	0.992 ± 0.021
TACACGGGTT	1.01 ± 0.035
GGGAGGTATT	0.99676 ± 0.00098
GAATATTTAG	0.958 ± 0.015
CAATCAACCG	1.064 ± 0.0015
TGGGTATGG	1.07 ± 0.072
CGTAGTAGGA	1.04 ± 0.084
GATTGGGTCA	1 ± 0.012
AAATTTTTAG	1.02 ± 0.018
TTTGTCGGGT	0.994 ± 0.014
AATACTGAGC	1.04 ± 0.053
ATCTAATAGG	0.959 ± 0.018
TAGGAGGAGG	0.984 ± 0.011
TGGCGTTTGG	1 ± 0.015
AATTTAGGCC	1.023 ± 0.0087
TAATTGGAGG	0.9805 ± 0.0051
GCTCTGTGGG	0.967 ± 0.024
TTCGATGGTG	0.987 ± 0.0044

Sequence	switch fluorescence ratio
TCAAAGCGGA	1.01 ± 0.046
TGGTACGGGT	1.03 ± 0.011
AAAGCCGGTA	1.01 ± 0.084
TTTTGATAGA	1 ± 0.058
TACTAAGAGA	1.03 ± 0.029
AGCAGCTGGG	1.01 ± 0.012
TCGGGCTGTG	1.02 ± 0.05
GAAAACAGTT	0.9951 ± 0.0053
TTGTTCATTT	0.994 ± 0.012
ACTTTGAATC	0.998 ± 0.053
AGAAAAGGAA	1 ± 0.017
TTACTCTCTG	1.03 ± 0.025
AATTTTGTTT	0.991 ± 0.035
AATAGCTCGG	0.9867 ± 0.0047
TGAGAGTTAA	0.961 ± 0.036
ATGAAAAGTT	0.993 ± 0.011
GGAATTATCG	0.98808 ± 0.00049
GAGGGAATTA	1.06 ± 0.11
TCTAGTCGAA	1.02 ± 0.036
GTGTCGTGGC	1.012 ± 0.0029
TTTGATAAAA	0.972 ± 0.039
CGGTTTAGGT	0.951 ± 0.017
CGGTGAAGGG	0.994 ± 0.027
GATTTTCCTT	1.01 ± 0.027
AAGAGGGGGA	0.996 ± 0.042

Source: the supplement of paper PMC10126150
